Experiment: yeast display, Sf9 membrane polyspecificity reagent, FACS + sequencing; frameworks hold sequencing errors
Procedure, shortened: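 Sorting gates, low and high (top ~1%), were placed on anti-HA fluorescence to track expression and on streptavidin fluorescence to track reagent binding. A clone's polyreactivity label is taken from the gate it came out of. The reagent was 10% biotinylated, detergent-solubilized Sf9 membrane, applied for 1 hour at 4 °C to galactose-induced yeast display cells.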

Sequence | polyreactivity (PSR sort gate)
QVQLVESGGGLVKAGGSLRLSCAAYGITFIRYAMGWYRQAPGKERELVAVMTRSGGRTYYADSVKGRFTISRDNAKNTVYLQMNSLKPEDTAVYYCAARAYGYDEYEYWGQGTQVTVSS | high polyreactivity
QVQLVESGGGLVQAGGSLRLSCAASGSTFYHNAMGWYRQAPGKERELVAAITSGTSTYYADSVKGRFTISRDNAKNTVYLQMNSLKPEDTAVYDCAADSPWGGGYFVLYNYWGQGTQVTVSS | low polyreactivity
QVQLVESGGGLVQAGGSLRLSCAASGSIFHLYAMGWYRQATGKERELVAAISWSGGSTYYADSVKGRFTISRDNAKNTVYLQMNSLKPEDTAVYYCAAEYYYQFYDYPYGYEYWGQGTQVTVSS | high polyreactivity
QVQLVESGGGLVQAGGSLRLSSAASGSTLVIYAMGWYRQAPGIERQLVAAIDANTGSTYYADSVKGRFTISLDNAKNTDYLQMNSLKPEDTAVYYCNAQVYLPTAYDYWGQGTLVTVSS | low polyreactivity
QVQLVESGGGLVQAGGSLRLTCAASGYTFRGYAMGWYRQAPGKEREFVAAINWSDGSTYYADSVKGRFTISRDNAKNTVYLQMNSLKPEDTAVYYCNADQYYRVPDNYWGQGTQVTVSS | low polyreactivity
QVQLVESGGGLVQAGGSLRLSCAASGSIFPDNAMGWYRQAPGKERELVATIRSTGGTNYADSVKGRFTISRDNEKNTVYLQMNSLKPEDTAVYYCATDLWSTTGSEYDYWGQGTQVTVSS | low polyreactivity
QVQLVESGGGLVQAGGSLRLSCAASGRIFYDYAMGWYRQAPGKERELVAAISKGGGSTYYADSVKGRFTISRDNAKNTVYFQMNSLKPEDTAVYYCASSTSHTTDTRYDYWGQGTQVTVSS | low polyreactivity
QVQLVESGGGIVQAGGRLRLSCDASGSTFSRYTMGWYRQAPGKEREFVAAIRTSGGRTYEDSVKGRFTISRDNAKNTVYVQMNSLKPEDTAVYYCAATRYYGYNTKYEYWGQGTQVTVSS | high polyreactivity
PVQLVESGGGLVQAGGSLRLSCAASGFTFDRYAMGWYRQAPGKERELVAAISRSGATTYYADSVKGRFTISRDNAKNTVYLQMNSLKPEDTAVYYCNADDVWYEYDYWGQGTQVTVSS | high polyreactivity
QVQLVASGGGLVQAGGSLRLSCAASGSIFIYYTMGWYRQAPGKERELVAAINRGGSTYYADSVKGRFTISRDNAKNTVYLQMNSLKPEDTAVYYCNARYYRLPYWDAVKYDYWGQGTQVTVSS | low polyreactivity
QVQLVESGGGLVQAGGSLRLSCAASGRTSLRYAMGWYRQAPGKERELVAAITSSGATTYYADSVKGRFTISRDNAKNTVYLQMNSLKPEDTAVYYCAAVYSAKRGSGGFGYWGQGTQVTVSS | high polyreactivity
QVQLVESGGGLVQAGGSIRLTCAASGSIFKLYAMGWYRQATGKERELVAAISWRGGSTYYADSVKGRFTISRDIAKNTVYLQMNSLKPEDTAVYYCAAEYRQYDYWGQGTQVTVSS | high polyreactivity
QVQLGESGGGLVQAGGSLRLSCAASGSIFRGYTMGWYRQAPGKERELVAGISFSGTRTYYADSVKGRFTISRDNAKNTVYLQMNSLKPEDTAVYYCAAVSPYGSQYGYWGQGTQVTVSS | high polyreactivity
QVQLVESGGGLVQAGGSLRLRCAASGRIFPDNAMGGYRQAPGKERELVAAITYSGGSTSYADSVKGRFTISRDNAKNTVYLQMNRLKPEDTAVYYCIKAGGTSYDYVRVDKFPGVYWGQGTQVTVSS | low polyreactivity
QVQLVESGGGLVQAGGSLRLSCAASGSTFWSNAMGWYRQAPGKERELVAAISISDGNTYYADSVKGRFTISRDNAKNTVYLQMNSLKPEDTAVYYCATVGSEDGDPGFDYWGQGTQVTVSS | low polyreactivity
QFQLVESGGGLVQAGGSLRLSCAASGIIFGRYTMGWYRDAPGKERELVAAITSSGITYYADSVKGRFTISRDNAKNTVYLQMNSLKPEDTAVYYCAADVGYWGRSRGYPSDDYDYWGQGTQVTVSS | low polyreactivity

Sequence | polyreactivity (PSR sort gate)
QVQLVESGGGLVQAGGSLRLSCAASGRTFSYNAMGWYRQAPGKERELVAAIDWSGGRTYYADSVKGRFTISRDNAKNTVYLQMNSLKPEDTAVYYCNKAVRSSYSAWQYGMYYWGQGTQVTVSS | high polyreactivity
QVQLVESGGGLVQAGGSLRLSCAASGRTFRSYAMGWYRQAPGKEREFVAAISRSGASTRYADSVKGRFTISRDNAKNTVYLQMNSLKPEDTAVYYCAKSWRYSINQSYRAGYNYWGQGTQVTVSS | high polyreactivity
QVQLVESVVGLVQAGVSLRLSCAASGFIVYANAMGWYRQAPGKERELVAAISRGTSTYYADSVKGRFTISRDNAKNTVYLQMTSLKPEDTAVYYCATYYYRPWGGYYWGQGTQVTVSS | high polyreactivity
QVQLLESGGGLVQAGGSLRLSCAASGLTFGWYAMGWYRQAPGKERELVAAITWNSGSTYYADSVKGRFTISRDNAKNTVYLQMNSLKPVDTAVYYCAAGYQDSQEYDYWGQGTQVTVSS | low polyreactivity
QVQLVESGGGLVQAGGSLRLSCAASGITFAFYAMGWYRQAPGKERELVAAISWSGTRTYYADSVKGRFTISRDNAKNTVYLQMNSLKPEDTAVYYCAADFQAGDKLYDYWGQGTQVTVSS | low polyreactivity
QVQLVESGGGLFQAGGSLRLSCAPSGFTFSNYAMGWYRQAPGKEREFVAAISGTGGSTYYADSVKGRFTISRDNAKNTVYLQMNSLKPEDTEVYYCYFYFRRQYEHEYWGQGTQVTVSS | high polyreactivity
QVHLVESGGGLVQAGGSLRLICAASGFIFPRTAMGSYRQAPGKERELVAAISVSGGSTYYADSVKGRFTISRDYAKNTVYLQMNSLKPEDTAVYYCAKRTWDLRRTRHYYWGQGNQVTVSS | low polyreactivity
QVQLVESGGGLVQAGGSLRLSCAATGSISGYYAMGWYRQAPGKERELVASIRYTGARTYYADSVKGRFTISRDNAKNTVYLQMNSLKPEDTAVYACAADVKRDRVWGGDYWGQGTQVTVSS | low polyreactivity
QVQLVESGGGLVQAGGSLRLSCSASGFIFTLYAMGWYRQAHGKERELVASIRGSGVNTYYADSVKGRFTISRDNAKNTDYLQMNSLKPEDTAVYYCAARTYRRPYYSWGQGTQVTVSS | high polyreactivity
QVQLVESGGGLVQAGGSLRLSCAASGIIFYYYTMGWYRQAPGKERELVAAISFSGSNTYYADSVKGRFTISRDNAKNTVYLQMNSLKPEDTAVYYCAARARKDSNRRTYGYWGQGTQVTVSS | high polyreactivity
QVQLVESGGGLVQAGGSLRLSCAASGSTLAVYAMGWYRQAPGKERELDAAISYSGGGTYYADSVKGRFTISRDNAKNTVYLQMNSLKPEDTAVYYCATDLYYEYYTWDYYWGQGTQVTVSS | low polyreactivity
QVQLVESGGGLVQAGGSLRLSCAASGYTFPRYAMGWYRQAPGKERELVAAISRRGGSTYYADSVKGRFTISRDNAKNTVYLQMNSLKPEDTAVYYCAAATRQGYYSGSTRYDYWGQGTQVTVSS | high polyreactivity
QVQLVESAGGLVQAGGSLRLSCAPSGSTFYHNVMGWYSPAPGKERELVASIDTGDSTNYADSVKGRFTISRDNAKNTVYLQMNSLKPEDTAVYYCARSQAVYDGWFAKFGYWGQGTQVTVSS | low polyreactivity
QVQLVESGGGLVQAGGSLRLSCAASGRIRYAMGWYRQAPGKERELVAGIRWSGTSTYYADSVKGRFTISRDNAKNTVYLQMNSLKPEDTAVYYCNAKAQSRYVRYGYWGQGTQVSVSS | high polyreactivity
QVQLVESGGGLVQAGGSLRLSCAASGLILKYYAMGWYRQAPGKEREFVAAITRRGGITYYADSVKGRFTISRDNAKNTVYLQMNSLKPEDTAVYYCAADPKLGSLAYWRYSYPLYDYWGQGTQVTVSS | low polyreactivity
